Data published in article PMC4170648, “Clinically used antirheumatic agent auranofin is a proteasomal deubiquitinase inhibitor and inhibits tumor growth” (Oncotarget, 2014).

Biological target: T1, HA-tagged ubiquitin-Vinyl Sulfone (UniProt P0CG48 1-76, vinyl sulfone (position not given))
T1 construct: ubiquitin, the mature cut product of a ubiquitin precursor, carrying a vinyl sulfone warhead; Commercial active-site probe; also called HA-UbVS; HA-Ub-VS; source: bought: Boston Biochem
Test: active-site-directed covalent labelling with HA-UbVS; purified 26S proteasomes (25 nM) incubated with HA-UbVS for 1 h at 37°C, boiled in reducing sample buffer, SDS-PAGE, HA immunoblot; without Aur, and after 2 μM Aur for 10 min (labelling reduced)
Settings: both partners purified

B1: UCHL5 (enzyme, human, UniProt Q9Y5K5 1-329, looked up)
chain: MTGNAGEWCLMESDPGVFTELIKGFGCRGAQVEEIWSLEPENFEKLKPVHGLIFLFKWQPGEEPAGSVVQDSRLDTIFFAKQVINNACATQAIVSVLLNCTHQDVHLGETLSEFKEFSQSFDAAMKGLALSNSDVIRQVHNSFARQQMFEFDTKTSAKEEDAFHFVSYVPVNGRLYELDGLREGPIDLGACNQDDWISAVRPVIEKRIQKYSEGEIRFNLMAIVSDRKMIYEQKIAELQRQLAEEEPMDTDQGNSMLSAIQSEVAKNQMLIEEEVQKLKRYKIENIRRKHNYLPFIMELLKTLAEHQQLIPLVEKAKEKQNAKKAQETK
notes: UCHL5/Uch37, human, deubiquitinase associated with the 19S regulatory particle, present in purified 26S proteasomes; It stood in the assay as a component of the bought 26S proteasome and was resolved as a labelled band on SDS-PAGE; PDB 3RIS was used only for docking of the small molecule; also called UCHL5/Uch37; source: bought: Boston Biochem, as part of purified human 26S proteasomes
binding result: binds
